In publication PMC11063116:
Numbering of substitutions follows the chain as printed. In names and notes the source's numbering stands.

B1: BvHSS (homospermidine synthase) (Blastochloris viridis) (protein)
chain: MTDWPVYHRIDGPIVMIGFGSIGRGTLPLIERHFAFDRSKLVVIDPSDEARKLAEARGVRFIQQAVTRDNYRELLVPLLTAGPGQGFCVNLSVDTSSLDIMELARENGALYIDTVVEPWLGFYFDPDLKPEARSNYALRETVLAARRNKPGGTTAVSCCGANPGMVSWFVKQALVNLAADLGVTGEEPTTREEWARLAMDLGVKGIHIAERDTQRASFPKPFDVFVNTWSVEGFVSEGLQPAELGWGTFERWMPDNARGHDSGCGAGIYLLQPGANTRVRSWTPTAMAQYGFLVTHNESISIADFLTVRDAAGQAVYRPTCHYAYHPCNDAVLSLHEMFGSGKRQSDWRILDETEIVDGIDELGVLLYGHGKNAYWYGSQLSIEETRRIAPDQNATGLQVSSAVLAGMVWALENPNAGIVEADDLDFRRCLEVQTPYLGPVVGVYTDWTPLAGRPGLFPEDIDTSDPWQFRNVLVRD
B2: BvHSS (homospermidine synthase) (Blastochloris viridis; D361E) (protein)
chain: B1 chain with D361E
B3: BvHSS (homospermidine synthase) (Blastochloris viridis; D361E/E232D) (protein)
chain: B1 chain with E232D, D361E

Substrate: NCCCN
Assay: purified protein
Conditions: 2 mM putrescine, 0.6 mM NAD+, 100 mM Tris-HCl pH 9, 50 °C

Protein | Km | kcat | kcat/Km
B1 | 0.49 ± 0.03 mM | 13.6 s⁻¹ | 27800 M⁻¹ s⁻¹
B2 | 0.43 ± 0.06 mM | 19.3 s⁻¹ | 45000 M⁻¹ s⁻¹
B3 | 0.31 ± 0.02 mM | 21.1 s⁻¹ | 68000 M⁻¹ s⁻¹
